Assay results published in US20160046716A1 (Dana-Farber, published 2016).
Values belong to the molecule of their own block, whether it stands above or below them.

Legend:
[1] = biological target: human MICA on transduced B16 melanoma cells (human) (UniProt Q29983); assay: flow cytometry of B16 cells transduced with human MICA, antibody at 10 ug/ml; unstained 11.4; the same antibody on untransduced B16: 7.49 (unstained 7.12)
[2] = biological target: MICA antigen (UniGene Hs.130838) with a C-terminal BirA tag (human) (UniProt Q29983); assay: flow cytometry of MICA-coated streptavidin beads, antibody directly conjugated to PE; legend box says 0.0002ug, label inside the plot 0.002µg/ml; streptavidin bead without MICA: 2.16
[3] = biological target: MICA antigen (UniGene Hs.130838) with a C-terminal BirA tag (human) (UniProt Q29983); assay: flow cytometry of MICA-coated streptavidin beads, antibody directly conjugated to PE; legend box says 0.005ug, the label inside the plot says 1.2µg/ml (they disagree); streptavidin bead without MICA: 1.98
[4] = biological target: MICA antigen (UniGene Hs.130838) with a C-terminal BirA tag (human) (UniProt Q29983); assay: flow cytometry of MICA-coated streptavidin beads, antibody directly conjugated to PE; legend box says 0.12ug, the label inside the plot says 0.05µg/ml (they disagree); streptavidin bead without MICA: 1.95
[5] = biological target: MICA antigen (UniGene Hs.130838) with a C-terminal BirA tag (human) (UniProt Q29983); assay: flow cytometry of MICA-coated streptavidin beads, antibody directly conjugated to PE; legend box says 0.001ug, the label inside the plot says 0.24µg/ml (they disagree); streptavidin bead without MICA: 1.95
[6] = biological target: MICA antigen (UniGene Hs.130838) with a C-terminal BirA tag (human) (UniProt Q29983); assay: flow cytometry of MICA-coated streptavidin beads, antibody directly conjugated to PE; legend box says 0.024ug, the label inside the plot says 0.01µg/ml (they disagree); streptavidin bead without MICA: 1.95
[7] = biological target: human MICA on transduced B16 melanoma cells (human) (UniProt Q29983); assay: […], antibody at 10 ug/ml; […]
[8] = biological target: MICA antigen (UniGene Hs.130838) with a C-terminal BirA tag (human) (UniProt Q29983); assay: flow cytometry of MICA-coated streptavidin beads, Alexa488 anti-human IgG; antibody at 6µg/ml; streptavidin bead without MICA: 2.63
[9] = biological target: MICA antigen (UniGene Hs.130838) with a C-terminal BirA tag (human) (UniProt Q29983); assay: flow cytometry of MICA-coated streptavidin beads, Alexa488 anti-human IgG; antibody at 30µg/ml; streptavidin bead without MICA: 3.53
[10] = biological target: MICA antigen (UniGene Hs.130838) with a C-terminal BirA tag (human) (UniProt Q29983); assay: flow cytometry of MICA-coated streptavidin beads, Alexa488 anti-human IgG; antibody at 1.2µg/ml; streptavidin bead without MICA: 2.16
[11] = biological target: MICA antigen (UniGene Hs.130838) with a C-terminal BirA tag (human) (UniProt Q29983); assay: flow cytometry of MICA-coated streptavidin beads, Alexa488 anti-human IgG; antibody at 0.24µg/ml; streptavidin bead without MICA: 2.3
[12] = biological target: MICA antigen (UniGene Hs.130838) with a C-terminal BirA tag (human) (UniProt Q29983); assay: flow cytometry of MICA-coated streptavidin beads, Alexa488 anti-human IgG; antibody at 0.05µg/ml; streptavidin bead without MICA: 2.18
[13] = biological target: T1, recombinant MICA alpha 3 domain (human, UniProt Q29983 206-299); assay: cytometric bead assay: biotinylated MICA alpha 3 domain on streptavidin beads, FITC anti-human IgG, flow cytometry
T1 construct: domain: alpha 3 domain; also called Alpha 3 MICA Domain
T1 sequence (looked up): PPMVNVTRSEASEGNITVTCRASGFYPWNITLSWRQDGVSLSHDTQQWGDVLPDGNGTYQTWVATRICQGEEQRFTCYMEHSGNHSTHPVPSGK

[14] = biological target: T2, recombinant MICA*009 conjugated to Luminex beads (commercial kit) (human, UniProt Q29983 26-307); assay: Luminex bead assay (One Lambda kit), PE anti-human IgG secondary; bars assigned by their order in the legend box
T2 chain: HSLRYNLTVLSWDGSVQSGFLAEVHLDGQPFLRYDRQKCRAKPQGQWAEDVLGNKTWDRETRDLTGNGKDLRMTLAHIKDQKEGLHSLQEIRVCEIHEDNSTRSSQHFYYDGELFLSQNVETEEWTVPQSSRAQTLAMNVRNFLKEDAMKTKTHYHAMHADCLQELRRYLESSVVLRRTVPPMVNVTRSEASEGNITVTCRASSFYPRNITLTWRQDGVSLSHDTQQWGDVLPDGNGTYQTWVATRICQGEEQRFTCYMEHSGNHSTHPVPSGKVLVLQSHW

Sequence of MICA antigen (UniGene Hs.130838) with a C-terminal BirA tag (human) (Q29983 other isoform, or with tags, fused parts or gaps limits assumed): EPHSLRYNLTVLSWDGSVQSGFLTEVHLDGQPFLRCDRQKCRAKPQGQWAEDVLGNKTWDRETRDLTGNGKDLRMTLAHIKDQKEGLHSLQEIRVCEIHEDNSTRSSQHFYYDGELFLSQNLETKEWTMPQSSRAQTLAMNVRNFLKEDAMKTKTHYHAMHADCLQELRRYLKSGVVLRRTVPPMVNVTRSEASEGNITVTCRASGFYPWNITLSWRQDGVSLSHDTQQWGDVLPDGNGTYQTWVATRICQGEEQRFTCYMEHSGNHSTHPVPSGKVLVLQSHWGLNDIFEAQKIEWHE
Sequence of human MICA on transduced B16 melanoma cells (human) (Q29983 24-383): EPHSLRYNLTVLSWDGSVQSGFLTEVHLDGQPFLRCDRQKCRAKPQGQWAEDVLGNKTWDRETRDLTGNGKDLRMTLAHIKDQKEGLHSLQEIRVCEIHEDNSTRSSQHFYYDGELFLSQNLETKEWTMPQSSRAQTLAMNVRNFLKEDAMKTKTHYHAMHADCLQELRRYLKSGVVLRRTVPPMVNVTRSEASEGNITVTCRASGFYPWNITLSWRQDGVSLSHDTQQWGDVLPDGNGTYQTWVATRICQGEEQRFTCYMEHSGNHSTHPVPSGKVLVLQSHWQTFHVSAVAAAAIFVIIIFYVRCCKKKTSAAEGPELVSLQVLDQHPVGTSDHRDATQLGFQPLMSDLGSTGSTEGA

Molecule: commercial anti-MICA/MICB monoclonal antibody (clone 6D4, BioLegend)
Geom. Mean:FL1-H [1]: 188 | fluorescence value (statistic not given, FL2-H) [2]: 4.31 | fluorescence value (statistic not given, FL2-H) [3]: 65.9 | fluorescence value (statistic not given, FL2-H) [4]: 391 | fluorescence value (statistic not given, FL2-H) [5]: 16.8 | fluorescence value (statistic not given, FL2-H) [6]: 194

Molecule: negative control antibody (TTCF specific)
Geom. Mean:FL1-H [7]: 11.5 | fluorescence value (statistic not given, FL1-H) [8]: 2.62 | fluorescence value (statistic not given, FL1-H) [9]: 3.43 | fluorescence value (statistic not given, FL1-H) [10]: 2.27 | fluorescence value (statistic not given, FL1-H) [11]: 2.28 | fluorescence value (statistic not given, FL1-H) [12]: 2.23

B1: CM24002 Ab2 (antibody, V domains shown)
VH: QVQLQESGPGLVEPSGTLSLTCTVSGGSISRSNWWSWVRQPPGEGLEWIGEIHHIGRSSYNPSLKSRVTMSVDKSQNQFSLRLTSVTAADTAVYYCAKNGYYAMDVWGQGTTVTVSS
VL: EIVLTQSPGTLSLSPGERATLSCRASQSVSSDFLAWYQQKPGQAPRLLIYATSFRATGISDRFSGSGSGTDFSLTINRLEPEDFAVYYCQHYRSSPPWYTFAQGTKLDMRRTVAAPSV
notes: also called anti-MICA antibody ID-6; antibody ID 6
binding result [13]: no binding (tested: 10 µg/ml)

B4: CM24002 Ab4 (antibody, V domains shown)
VH: QVQLQESGPGLVKPSGTLSLTCAVSGASITNGAWWSWVRQPPGKGLEWIGEIYLNGNTNSNPSLKSRVIISVDKSKNHFSLTLNSVTAADTAVYYCAKNAAYNLEFWGQGALVTVSS
VL: EIVLTQSPGTLSLSPGERATLSCRASQTVSSPYVAWYQQKRGQAPRLLIYGASTRATGIPDRFSGSGSGTDFTLTISRLEPEDFAVYYCQQYDRSYYYTFGQGTKLEIK
notes: also called anti-MICA antibody ID-7; antibody ID 7
binding result [13]: no binding (tested: 10 µg/ml)

Further lines, results first:

binding result [13]: no binding (tested: 10 µg/ml)
B2: CM33322 Ab11 (antibody, V domains shown)
VH: QVQLQESGPGLVKPSENLSLTCTVSDASMSDYHWSWIRQAAGKGLEWIGRMYSTGSPYYKPSLKGRVTMSIDTSKNQFSLKLASVTAADTAIYYCASGQHIGGWVPPDFWGQGTLVTVSS
VL: DIVMTQTPLSSPVTLGQPASISCRSSEGLVYSDGDTYLSWFHQRPGQPPRLLIYKISNRFSGVPDRFSGSGAGTDFTLKISRVEAEDVGVYYCMQATHFPWTFGQGTKVEVKR
notes: also called CM33322 mAb11; CM33322 11

binding result [14]: no binding (tested: 200 µg/ml)
B3: MICA-Ab20 (antibody, V domains shown)
VH: QVQLQQWGAGLLKPSETLALTCAVSGGSFTDHYWSWIRQAPGKGLEWIGEINHSGVTNYNPSLKSRLTISVDTSKSQFSLRLTSVTAADTALYYCAKTGLYYDDVWGTFRPRGGFDSWGQGTLVTVSS
VL: DIVMTQSPDSLAVSLGERATINCKSSQSILYSSDNKNYLAWYQHKPGQPPKLLFYWASIRESGVPDRFSGGGSGTDFTLTISSLQAEDVAVYYCQQYYSPPCSFGQGTKLEIQ
notes: also called anti-MICA antibody ID-1; antibody ID 1
